The DeepSol protein solubility set

Test: soluble on expression in E. coli; label from the status in PepcDB or PDB records

Soluble on expression in E. coli, not soluble:
MTAPVPTCNMSGNPINLHKLTLIMPLPSPEARQFSLKLQTLIAEKIGKHGNWIPFSRFMELVLYAPQYGYYTGGSHKIGNTGDFITAPTLTSLFAQTLARQLQELLSQTAGNIYEFGAGTGQLAADLLGSISDGISRYYIIEISPELAARQKNLIQARAPEASQKVVHLTALPEAFDGIIIGNEVLDAMPVEIVRKNEGGSFEHVGVCLDNDRFTYSARPLHDLQLSALASLYFPQTDYPYTSELHPQQYAFIRTLASRLEHGCMIFIDYGFDAAQYYHPQRNQGTLIGHYRHHIIHNPFDFIGLADLTAHVNFTDIAQAGTDAGLDLIGYLPQSHFLLNLGITELLAQTGKTDSAAYICEAAAVQKLIDQHEMGELFKVIAFGKNIGIDWAGFRFGDICHKL
MSPVAAMKRKNGVALWRQIADRIRGEIAAGDHDETGMLPPEMTLAEKFGVNRHTVRSAIAALASEGILEPMQGRGTMIARKERLSFPISLRTRFTAGIGDQVKEMEALLLSHTTEPASADLAARLQLPSGAPLVRLETLRKADTRPVSRSTTWFPADRFAGIGEAYRKSGSITAAFKALGVADYVRISTVISAIHADTQDLADLELSPGAILLVTQALNADMDGVPVQYAVSRFSADTVEFTVEN
MNNQFIQRVIFDWNRIDNDSYLKGIEAFKGIEKLDFNKPITFFVGENGSGKSTLLEALAVAHGFNPEGGTKNYVFSTHDTHSELCDAIRIAKGYRKEKWGYFLRAESFYNVATQEEEYADITHPSAKYHEKSHGESFLALAQNNMNPNGLYLFDEPEAALSPQRQLTLLMQIYRCAKEGAQFIIVTHSPILLGIPDADIYCFDNGCIHLCEYEDTESYQVTEMFINNRQMLLDRLLTD
MSLKAWQLENFGLDNLKQVELEKPEIAEDQILIKVNSVSLNYRDTAIVEGIYTPELLKFPFIPVSDASGIVVEIGSKVTKFKKGDRVTSHMFTKWLDGKPKSDEQSHALGATVDGGLSEYMVLNENAAVFSPETLTDNQSSTLPVAAFVNWFSLVEYGNIKAGDKVLVQGTGGVSIFAIQIASALGAEVIATSSSDEKLEKAKELGASKVINYKTHPDWEKEVQKLTNGKGVEHIVEVVGGSSIAKSIDALAFQGHIYVIGFLENMEANVNLFALLAKQARIQGVNLGHHRAFEDFNKALDQINIDPVIDTVYSFDQAKEAYEHQMKGAFGKIVIDFNEGHHHHHH
MTGTYEQPVIDATYHNDDQGGHANQLVLKYVEDRKLSKVFKRICDSFKDYYNQPEDMTDEELDYQRVVSLSKSTQGKVNNRDTLIAFISDHNQLAEHLSMNYKEMTPEDLGAILESISQAFNHLYDMVVEGQLLVK
MAHHHHHHMSSVLKADVKEYIPSWANKRSSGVNPAATSTNKNGFATSVPTSNVMTTHSGCTGINAQNFTSSPRAAAGLPLCSPTTALRLPTRMSPMHAPFPSVSISMNPNATDFVPHLTGANSLAPLPTSTADLAEEKERQQKQESHLSSSMKWTTTSTRKNITQPALPLAVKANFTPTFAPIYVEKTEEEILEISKRSSLKVGAAAFVPRRTLNRVMIAKPSPFSLTPATGEMTLGDLWCLFYLPAGLGECIRENTYDPTLVFRVDSVATFWKVFNNIPQPTEMKIGTLYFFRDGINPKWEDPGNRDGGILKMKLDSHCINDAWVYLLCRTIGESWSKSVRDTVNGVALKARERAYLLEVWVTEQSAELMMDISELLRPLLGDVFSVFYAPHSVTQERAAAAALAEKKRSRNNRRRW
MPSRYTNILVPVDSSDAAQAAFTEAVNIAQRHQANLTALYVVDDSAYHTPALDPVLSELLDAEAAHAKDAMRQRQQFVATTSAPNLKTEISYGIPKHTIEDYAKQHPEIDLIVLGATGTNSPHRVAVGSTTSYVVDHAPCNVIVIR

Soluble on expression in E. coli, soluble:
AASWSHPQFEKGAETAVPNSGGGELFATHCAGCHPQGGNTVHPEKTLARARREANGIRTVRDVAAYIRNPGPGMPAFGEAMIPPADALKIGEYVVASFP
GSHMLFAEFAEFCERLEKISSTLELTARIAAFLQKIEDERDLYDVVLFITGKVYPPWDERELGVGIGLLYEALENVSGVKRSEIESMIREYGDLGLVAEQLIKKKKMTTLAFEELTVRKVRETFDEIASLTGEGSMKRKIMLLTGLYGLATPLEARYLTRLILNEMRLGVGEGIMRDAIARAFRADPETVERAYMITNDLGRVAVVAKKEGEEGLRKMKIEIHIPVRMMLAQVAESLESAVREMRTAAVEWKFDGSRVQVHWDGSRVTIYSRRLENVTNALPDIVEEIKKSVKPGVILDGEVIAVKEGKPMPFQHVLRRFRRKHDVAKMVEKIPLEAHFFDILYHDGECIDLPLRERRKLLESAVNESEKIKLAKQIVTDSVDEVRKMYDEAISAGHEGVMIKLPSSPYIPGKRGKNWLKVKAIMETLDLVVVGGEWGEGKRSHWLSSFELACLDPVTGKLLKVGRVATGFTEEDLEELTEMFRPLIVSQQGKKVEFIPKYVFEVAYQEIQKSPKYESGYALRFPRFVRLRDDKDVDEADTIERVENLYKLQFEVKRQ
MEGMDPLAVLAESRLLPLLTVRGGEDLLGLARVLEEEGVGALEITLRTEKGLEALKALRKSGLLLGAGTVRSPKEAEAALEAGAAFLVSPGLLEEVAALAQARGVPYLPGVLTPTEVERALALGLSALKFFPAEPFQGVRVLRAYAEVFPEVRFLPTGGIKEEHLPHYAALPNLLAVGGSWLLQGNLEAVRAKVRAAKALLSPQAPG
GPLGSHMSQAVQTNGTQPLSKTWELSLYELQRTPQEAITDGLEIVVSPRSLHSELMCPICLDMLKNTMTTKECLHRFCADCIITALRSGNKECPTCRKKLVSKRSLRPDPNFDALISKIYPSRDEYEAHQERVLARINKHNNQQALSHSIEEGLKIQAMNRLQRG
MSLKITNVQTQKVLVPLKKPLITAIHKTDSVGVVIVKIETDTGLVGENYVFALNKDRLDVFDAMIKSLTQFLIGNNPVYVEKIWQQMWQDCNPVGQKGIAISAISAIDTALWDLIGKQANMPLYQVFGACRDKVKTYASSGLWLSSNIDELIEEAHGFIDQGFRSMKLRLGKPDLKEDVERARALRASVGDDIEILTDANQSLTPRQAIALGRQLEDLNIAWLEEPVPAHDLAGHNRVLEAINIPVASGETDYTRFGMKDMLDHKAVDILMPDLQRIGGLSEFRKAAALASAYHIPVSSHIFTEQSLSIAGSADNCISVEHVDWFAPLYQEKIVINDGFIDMPMGAGIGFNFDYDFIDQNLIEGHHHHHH
MTSFDAIVIGGGHNGLVAAATLAKAGRKVLVLEAESEVGGAARTEEFAPGFRVSSIAHLLNRLHPDVVKTLELETHGLQFARADFLPSAALSKDGPALMLHGAYGEVLTGASPSEQSAWKDLRAQLLRYAGILKPFLTRRPPDLAGMSLMETASLGQTALALKKLGKEDMRDFLRVLLMNVADLLDEQLRDDRLKGLLAFDATLGSHLGPRSPTSLLGLYYRLAGEAGGAAGAQVLPQGGMGAVVAAIRAAAEKAGVTIRTSVAAAKIIVEKGHAVGVTLGTGEELRARTVVSAINPATTFLDLVGPREIDTGFVRKVKNIRMKGDAAKLHLALDRSPQFTGADAAAHKGRLVIAPSPDHVERAFNPCKYGEFSPEPVLEITLPSLADPSLAPDGACVLSAVVQYAPYALKEGWAAGKPKFIKAVMAQLEAYAPGIGKSVVHAELLTPADIETRYRMPGGHWHHGELQADQMLISRPVSGWSGYDTPVEGLFLAGAGSHPGGGVSGAPGLNAARRIIAMKGLEHHHHHH
MSLETQDHTLYVLLGPTGVGKTDLSLDIAERLGSPIISADSRQIFRELPIGTAAPTPEQRARVPHLFVGTHSVRDYYSAGMYEVEVLEALKELFRKYRGVLLTGGSMMYIDAVCRGIDDIPDPFPEVREELYARYAAEGLDGILAQLRLLDPDYYAKVDRRNYKRVIHGLEICLSTGRPFSSFHRHEAKERPFRIVKIGLYREREELCKRIDARVLEMMEQGLEEEARAVYPLRHLNALNTVGYKEMFEYFDGSIDRAEAVRRIQRNSRVYARKQMTWFRRDSTIRWFHPEADKGTVLTLVTEGHHHHHH
